Changes are numbered by the printed parent chain. Each block holds one molecule with its values, some of them ahead of it.
Assays:
[1] = molecular target: T1, human PD-1 expressed on CHO-S cells (human, UniProt Q15116 25-288); experiment: cell-based ELISA on CHO-S cells expressing human PD-1
T1 construct: CHO-S cells transfected with pCMV3-C-FLAG vector (Sino) holding human PD-1 cDNA; also called cell surface human PD-1; hPD-1
Experimental: To summarize the ELISA analysis, 10,000 CHO-S cells expressing either human PD-1 or mouse PD-1 were coated in a collagen-coated 96-well plate (Thermo scientific) overnight in an incubator at 37° C. The coated cells were fixed with 8% paraformaldehyde at room temperature for 15 minutes.
After washing, a secondary antibody was added and incubated overnight at 4° C. […] After washing, TMB substrate (abcam) was added, and the color reaction was stopped with STOP solution (abcam). Absorbance at 450/650 nm was measured using a microplate reader (ThermoFisher).

[2] = molecular target: T1, human PD-1 expressed on CHO-S cells; experiment: cell-based ELISA on fixed CHO-S cells expressing human PD-1
[3] = molecular target: T2, human PD-1 protein (human, UniProt Q15116 25-167, limits assumed); experiment: SPR, Biacore 8K, antibody captured on Protein A chip, human PD-1 as analyte
T2 construct: also called human PD-1 antigen

[4] = molecular target: T2, human PD-1 protein; experiment: SPR, Biacore 8K, antibody captured on Protein A chip, human PD-1 as analyte, pH 7.4
[5] = molecular target: T2, human PD-1 protein; experiment: SPR, Biacore 8K, antibody captured by anti-human IgG on CM5, human PD-1 as analyte
Experimental: Anti-human IgG antibody was immobilized on a CM5 chip (Cytiva) via amine coupling. […] Human PD-1 and running buffer at a concentration of 0-100 nM (0, 6.25, 12.5, 25, 50, 100 nM) were flowed onto the sensor chip at a flow rate of 30 μl/min for an association phase of 120 s, which was followed by a dissociation phase of 900 s. The chip was regenerated with glycine at pH 1.5 after each experiment. Association and dissociation curves were drawn using Cytiva evaluation software, and kinetics and affinity values were determined.

[6] = molecular target: T2, human PD-1 protein; experiment: SPR, Biacore 8K, antibody captured on Protein A chip, human PD-1 as analyte, HBS-EP+ at pH 6.0
Experimental: (§1) The binding kinetics of each antibody to human PD-1 were measured through SPR (Surface Plasma Resonance) analysis using Biacore 8K (Cytiva), and the antibodies' binding affinities to the antigen were compared to one another.
(§2) Seven concentrations ([…]) of human PD-1 were flowed onto the sensor chip at a flow rate of 30 μL/min for an association phase of 120 s, followed by dissociation for 1800 s. Capture, association, and dissociation were performed in HBS-EP+buffer at pH 6.0. The chip was regenerated with glycine at pH 1.5 after each experiment. Association and dissociation curves were drawn using Cytiva evaluation software, and kinetics and affinity values were determined.

[7] = molecular target: T2, human PD-1 protein; experiment: SPR (Biacore 8K), ratio between the values at pH 7.4 and pH 6.0, human PD-1 as analyte
Experimental: as §1, §2

[8] = molecular target: T3, extracellular domain (ECD) PD-1 protein from human (human, UniProt Q15116 25-170); experiment: protein-based ELISA, coated PD-1 ECD, antibody at 1 ug/ml
T3 construct: the whole entry is named; also called human PD-1 antigen
Experimental: (§3) To determine the cross-reactivity of the antibody to PD-1 antigens, protein-based ELISA was performed. To summarize the ELISA analysis, a 96-well plate (Thermo scientific) was coated with 10 ng of the extracellular domain (ECD) PD-1 proteins from human, mouse, rabbit, cynomolgus, and rat overnight at 4° C. […] After washing, a secondary antibody (anti-human IgG antibody) was added and incubated at 37° C. for 2 hours. After washing, TMB substrate (abcam) was added, and the color reaction was stopped with STOP solution (abcam). Absorbance at 450/650 nm was measured using a microplate reader (ThermoFisher).

[9] = molecular target: T4, extracellular domain (ECD) PD-1 protein from mouse (mouse, UniProt Q02242 25-169); experiment: as above
T4 construct: extracellular domain; also called mouse PD-1 antigen
T4 sequence (looked up): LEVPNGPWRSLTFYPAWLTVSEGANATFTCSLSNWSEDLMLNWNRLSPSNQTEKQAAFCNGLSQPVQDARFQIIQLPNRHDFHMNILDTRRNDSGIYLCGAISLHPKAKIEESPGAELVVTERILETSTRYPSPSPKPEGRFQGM
Experimental: as §3

[10] = molecular target: T2, human PD-1 protein; experiment: SPR, binding kinetics to human PD-1
[11] = molecular target: T2, human PD-1 protein; experiment: SPR; ratio against the U299-WT parent
[12] = molecular target: T2, human PD-1 protein; experiment: SPR, binding kinetics to human PD-1; parent run 1
[13] = molecular target: T2, human PD-1 protein; experiment: SPR, binding kinetics to human PD-1; parent run 2

T2 sequence (Q15116 25-167 limits assumed): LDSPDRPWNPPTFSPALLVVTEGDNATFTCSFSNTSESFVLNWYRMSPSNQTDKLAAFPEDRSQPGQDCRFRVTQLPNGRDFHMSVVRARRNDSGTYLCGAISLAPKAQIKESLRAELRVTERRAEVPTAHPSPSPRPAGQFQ
T3 sequence (Q15116 25-170 limits assumed): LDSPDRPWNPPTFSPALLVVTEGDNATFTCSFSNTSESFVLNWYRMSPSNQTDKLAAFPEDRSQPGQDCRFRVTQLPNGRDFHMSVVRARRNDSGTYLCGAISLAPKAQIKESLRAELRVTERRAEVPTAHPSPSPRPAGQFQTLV
T1 sequence (Q15116 25-288 limits assumed): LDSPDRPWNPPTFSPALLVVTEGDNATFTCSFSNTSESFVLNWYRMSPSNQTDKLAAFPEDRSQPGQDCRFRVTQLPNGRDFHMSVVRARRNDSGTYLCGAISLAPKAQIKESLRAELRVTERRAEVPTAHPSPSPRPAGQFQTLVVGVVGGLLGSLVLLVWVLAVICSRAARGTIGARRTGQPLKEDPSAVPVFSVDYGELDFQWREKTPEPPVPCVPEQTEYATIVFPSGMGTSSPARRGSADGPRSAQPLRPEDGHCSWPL

Molecule: Keytruda (antibody)
- EC50 [1]: 0.154 nM
- EC50 (read off the curve) [2]: 0.05 µg/mL
- Kd [3]: 7.06 nM
- Kd [4]: 6.6 nM
- Kd [5]: 6.33 nM

B2: humanized antibody 1G1-h68 (antibody, human IgG4, kappa, V domains shown)
VH: QVQLVQSGAEVKKPGASVKVSCKASGYTFTGYWMHWVRQAPGQGLEWIGMIHPNSDTTTYNEKFKNRVTMTRDTSISTAYMELSRLRSDDTAVYYCTGTDQAAWFAFWGQGTTVTVSS
VL: DIVMTQTPLSLSVTPGQPASISCRSSQNIVHSNGDTYLEWYLQKPGQSPQLLIYKVSKRFSGVPDRFSGSGSGTDFTLKISRVEAEDVGVYYCFQGSHVPWTFGGGTKVEIKR
notes: hIgG4 heavy chain, human kappa light chain
- binding result [8]: binds
- binding result [9]: binds

B3: AHF16556 (antibody, V domains shown)
VH: B2 VH with T59V, E62W, T97A, A102E, F105A
VL: DIVMTQTPLSLSVTPGQPASISCRSSQNIVRSQGDTYLEWYLQKPGQSPQLLIYKVSKRFSGVPDRFSGSGSGTDFTLKISRVEAEDVGVYYCFQGSHVPWTFGGGTKVEIK
- Kd [10]: 0.427 nM
- koff [10]: 6.31e-05 s⁻¹
- kon [10]: 148000 M⁻¹ s⁻¹
- Ratio (kD) [11]: 5.27
- Ratio (kd) [11]: 6.45

B7: AHF16565 (antibody, V domains shown)
VH: B2 VH with T59V, E62W, T97A, A102E, F105H, A106G
VL: B3 VL
- Kd [10]: 0.913 nM
- koff [10]: 0.000118 s⁻¹
- kon [10]: 130000 M⁻¹ s⁻¹
- Ratio (kD) [11]: 2.46
- Ratio (kd) [11]: 3.45

B8: AHF16568 (antibody, V domains shown)
VH: B2 VH with T59I, E62W, T97A, A102E, F105M, A106G
VL: B3 VL
- Kd [10]: 0.241 nM
- koff [10]: 3.52e-05 s⁻¹
- kon [10]: 146000 M⁻¹ s⁻¹
- Ratio (kD) [11]: 9.34
- Ratio (kd) [11]: 11.6

B9: AHF16563 (antibody, V domains shown)
VH: B2 VH with T59V, E62W, T97A, A102E, F105M, A106G
VL: B3 VL with R31H
- Kd [10]: 0.165 nM
- koff [10]: 3.6e-05 s⁻¹
- kon [10]: 218000 M⁻¹ s⁻¹
- Ratio (kD) [11]: 13.6
- Ratio (kd) [11]: 11.3

B11: AHF16561 (antibody, V domains shown)
VH: B2 VH with T59I, T97A, F105A, A106G
VL: B3 VL
- Kd [10]: 0.302 nM
- koff [10]: 5.53e-05 s⁻¹
- kon [10]: 183000 M⁻¹ s⁻¹
- Ratio (kD) [11]: 7.45
- Ratio (kd) [11]: 7.36

B12: AHF16564 (antibody, V domains shown)
VH: B2 VH with T97A, A102E, F105A, A106G
VL: B3 VL
- Kd [10]: 0.16 nM
- koff [10]: 3.68e-05 s⁻¹
- kon [10]: 230000 M⁻¹ s⁻¹
- Ratio (kD) [11]: 14.1
- Ratio (kd) [11]: 11.1

B13: humanized antibody 1G1-h61 (antibody, human IgG4, kappa, V domains shown)
VH: B2 VH with I48M, T97A
VL: B2 VL with Q50K
notes: as for B2
- binding result [8]: binds
- binding result [9]: binds

B14: AHF16557 (antibody, V domains shown)
VH: B2 VH with T59V, E62W, T97A, F105A, A106G
VL: B3 VL with R31H
- Kd [10]: 0.425 nM
- koff [10]: 8.68e-05 s⁻¹
- kon [10]: 204000 M⁻¹ s⁻¹
- Ratio (kD) [11]: 5.29
- Ratio (kd) [11]: 4.69

B15: AHF16570 (antibody, V domains shown)
VH: B2 VH with T59I, E62W, T97A, F105A, A106G
VL: B3 VL
- Kd [10]: 0.2 nM
- koff [10]: 3.29e-05 s⁻¹
- kon [10]: 164000 M⁻¹ s⁻¹
- Ratio (kD) [11]: 11.2
- Ratio (kd) [11]: 12.4

B17: humanized antibody 1G1-h70 (antibody, V domains shown)
VH: B2 VH with T97A
VL: B2 VL with N33Q
notes: hIgG4 heavy chain, human kappa light chain; also called 1G1-h70 parent antibody (WT); U299-WTI
- Kd [12]: 2.32 nM
- koff [12]: 0.000402 s⁻¹
- kon [12]: 174000 M⁻¹ s⁻¹
- Kd [13]: 2.17 nM
- koff [13]: 0.000412 s⁻¹
- kon [13]: 190000 M⁻¹ s⁻¹
- binding result [9]: binds
- Kd [4]: 5.4 nM
- Kd [6]: 0.9 nM
- Ratio(PH 7.4 vs PH6) KD [7]: 5.8
- Ratio(PH 7.4 vs PH6) ka [7]: 2.3
- Ratio(PH 7.4 vs PH6) kd [7]: 2.7

Continued, values first:

- Kd [4]: 12.6 nM
- Kd [6]: 4.5 nM
- Ratio(PH 7.4 vs PH6) KD [7]: 2.8
- Ratio(PH 7.4 vs PH6) ka [7]: 3.4
- Ratio(PH 7.4 vs PH6) kd [7]: 0.8
B1: 2E5 antibody (antibody, V domains shown)
VH: QVQLVQSGAEVKKPGSSVKVSCKASGFTFTTYYISWVRQAPGQGLEYLGYINMGSGGTNYNEKFKGRVTITADKSTSTAYMELSSLRSEDTAVYYCAIIGYFDYWGQGTMVTVSS
VL: DVVMTQSPLSLPVTLGQPASISCRSSQSLLDSDGGTYLYWFQQRPGQSPRRLIYLVSTLGSGVPDRFSGSGSGTDFTLKISRVEAEDVGVYYCMQLTHWPYTFGQGTKLEIK

- Kd [10]: 0.331 nM
- koff [10]: 6.74e-05 s⁻¹
- kon [10]: 204000 M⁻¹ s⁻¹
- Ratio (kD) [11]: 6.8
- Ratio (kd) [11]: 6.04
B4: AHF16560 (antibody, V domains shown)
VH: B2 VH with T59I, T97A, A102E, F105H, A106G
VL: B3 VL

- Kd [10]: 0.31 nM
- koff [10]: 7.69e-05 s⁻¹
- kon [10]: 248000 M⁻¹ s⁻¹
- Ratio (kD) [11]: 7.26
- Ratio (kd) [11]: 5.29
B5: AHF16558 (antibody, V domains shown)
VH: B2 VH with T97A, A102E, F105H
VL: B3 VL

- Kd [10]: 0.371 nM
- koff [10]: 7.62e-05 s⁻¹
- kon [10]: 206000 M⁻¹ s⁻¹
- Ratio (kD) [11]: 6.06
- Ratio (kd) [11]: 5.34
B6: AHF16559 (antibody, V domains shown)
VH: B2 VH with T59V, T97A, F105H
VL: B3 VL with R31H

- Kd [10]: 0.339 nM
- koff [10]: 6.74e-05 s⁻¹
- kon [10]: 199000 M⁻¹ s⁻¹
- Ratio (kD) [11]: 6.64
- Ratio (kd) [11]: 6.04
B10: AHF16569 (antibody, V domains shown)
VH: B2 VH with T59I, E62W, T97A, A102E, F105A
VL: B3 VL

- Kd [10]: 0.349 nM
- koff [10]: 7.53e-05 s⁻¹
- kon [10]: 215000 M⁻¹ s⁻¹
- Ratio (kD) [11]: 6.45
- Ratio (kd) [11]: 5.41
B16: AHF16566 (antibody, V domains shown)
VH: B2 VH with T59V, E62W, T97A, F105A
VL: B3 VL with R31H

Reference: patent US20240034796A1 (GENUV, published 2024)
